Substitutions are numbered along the chain they refer to. Ends that are not written are not given here. Peptide text beside a SMILES is read from it. * marks the point of attachment. X1 = N[C@H]1CS[As]2SC[C@H](NC1=O)C(=O)N1CCC[C@H]1C(=O)NCC(=O)N[C@H]1CS[As](SC[C@@H](C(=O)*)NC1=O)c1c(O)ccc3c1Oc1c(ccc(O)c12)C31OC(=O)c2ccccc21
T1: KLHL3 full-length protein (residues 1–587) (human, UniProt Q9UH77-1 1-587)
T1 construct: Kelch-like protein 3 (KLHL3), human, NM_017415.2, residues 1-587; also called Kelch-like protein 3; source: Sf21 cells, expressed and purified as a DAC-(TEV protease)KLHL3 fusion protein
T1 sequence (looked up): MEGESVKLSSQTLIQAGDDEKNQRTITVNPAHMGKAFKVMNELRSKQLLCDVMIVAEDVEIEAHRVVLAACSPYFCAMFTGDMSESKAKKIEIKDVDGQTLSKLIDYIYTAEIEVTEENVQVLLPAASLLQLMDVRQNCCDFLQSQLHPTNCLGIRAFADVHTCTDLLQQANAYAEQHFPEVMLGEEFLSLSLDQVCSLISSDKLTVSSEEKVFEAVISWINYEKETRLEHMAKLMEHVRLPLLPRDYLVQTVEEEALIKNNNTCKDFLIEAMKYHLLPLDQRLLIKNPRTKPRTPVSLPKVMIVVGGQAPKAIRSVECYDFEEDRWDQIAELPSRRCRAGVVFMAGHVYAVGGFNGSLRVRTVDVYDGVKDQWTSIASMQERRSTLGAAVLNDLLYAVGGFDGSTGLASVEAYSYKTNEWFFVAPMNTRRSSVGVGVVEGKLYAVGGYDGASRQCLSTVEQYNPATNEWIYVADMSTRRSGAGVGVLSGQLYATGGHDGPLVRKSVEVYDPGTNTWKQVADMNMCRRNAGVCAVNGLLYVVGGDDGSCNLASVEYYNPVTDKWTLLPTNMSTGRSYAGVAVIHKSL

T2: GST–KLHL3^290–587 N529K (human, UniProt Q9UH77-1 290-587, N529K)
T2 construct: KLHL3, human, NM_017415.2, Kelch domain, residues 290-587, with the Gordon's syndrome mutation N529K; Mutation found in patients with Gordon's syndrome; also called KLHL3 N529K; source: E. coli BL21, purified (glutathione–Sepharose); not shown: GST, N-terminal, kept
T2 sequence (looked up): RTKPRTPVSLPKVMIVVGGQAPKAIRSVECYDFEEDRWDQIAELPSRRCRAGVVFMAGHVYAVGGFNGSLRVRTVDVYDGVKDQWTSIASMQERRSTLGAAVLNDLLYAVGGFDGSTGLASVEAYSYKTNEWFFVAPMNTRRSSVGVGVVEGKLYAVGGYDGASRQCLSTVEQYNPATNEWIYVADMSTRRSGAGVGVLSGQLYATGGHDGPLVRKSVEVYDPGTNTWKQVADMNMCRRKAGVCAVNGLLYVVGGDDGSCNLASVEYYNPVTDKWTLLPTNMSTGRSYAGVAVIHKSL

T3: GST–KLHL3^290–587 R528H (human, UniProt Q9UH77-1 290-587, R528H)
T3 construct: KLHL3, human, NM_017415.2, Kelch domain, residues 290-587, with the Gordon's syndrome mutation R528H; Mutation found in patients with Gordon's syndrome; also called KLHL3 R528H; source: E. coli BL21, purified (glutathione–Sepharose); not shown: GST, N-terminal, kept
T3 sequence (looked up): T2 sequence (looked up) with R239H, K240N

B1: 19-residue WNK4 degron peptide (WNK4 WT 549–567) (peptide)
peptide: GPPSVFPPEPEEPEADQHQ
modifications: not fully specified (N-terminus); also: Lumio Green fluorophore on N-terminal linker CCPGCCGGGG
notes: WNK4 acidic degron, residues 549-567; also called WNK4 19-residue peptide; source: synthetic peptide (GL Biochem)

What was measured:
GST–KLHL3^290–587 R528H [1] = target: GST–KLHL3^290–587 R528H (Homo sapiens, UniProt Q9UH77, R528H); format: binding
[2] = target: T1, KLHL3 full-length protein (residues …); experiment: fluorescence polarisation; Kelch protein titrated against 10 nM Lumio-Green-labelled peptide; 25°C; 50 mM Tris/HCl pH 7.5, 150 mM NaCl, 2 mM DTT; one-site specific binding with Hill slope; duplicates, at least 12 points per curve; conditions: both partners purified
GST–KLHL3^290–587 N529K = target: T2, GST–KLHL3^290–587 N529K; experiment: as above; conditions: both partners purified
GST–KLHL3^290–587 R528H [3] = target: T3, GST–KLHL3^290–587 R528H; experiment: as above; conditions: both partners purified

Row | Molecule | reduction of binding relative to wild-type KLHL3 (GST–KLHL3^290–587 R528H [1]) | Kd [2] [nM] | Kd (GST–KLHL3^290–587 N529K) [nM] | Kd (GST–KLHL3^290–587 R528H [3]) [nM]
1 | CC(C)[C@H](NC(=O)[C@H](CO)NC(=O)[C@@H]1CCCN1C(=O)[C@@H]1CCCN1C(=O)CNC(=O)CNC(=O)CNC(=O)CNC(=O)CNC(=O)[C@@H]1CS[As]2SC[C@H](NC(=O)CNC(=O)[C@@H]3CCCN3C(=O)[C@@H]3CS[As](SC[C@H](N)C(=O)N3)c3c(O)ccc4c3Oc3c(ccc(O)c32)C42OC(=O)c3ccccc32)C(=O)N1)C(=O)N[C@@H](Cc1ccccc1)C(=O)N1CCC[C@H]1C(=O)N1CCC[C@H]1C(=O)N[C@@H](CCC(=O)O)C(=O)N1CCC[C@H]1C(=O)N[C@@H](CCC(=O)O)C(=O)N[C@@H](CCC(=O)O)C(=O)N1CCC[C@H]1C(=O)N[C@@H](CCC(=O)O)C(=O)N[C@@H](C)C(=O)N[C@@H](CC(=O)O)C(=O)N[C@@H](CCC(N)=O)C(=O)N[C@@H](Cc1cnc[nH]1)C(=O)N[C@@H](CCC(N)=O)C(=O)O (stereo partly shown) [WNK4 WT 549–567] (X1-GGGGGPPSVFPPEPEEPEADQHQ-OH) | approximately 10 fold | – | – | –
2 | B1 | – | 620 | 6600 | 1930
